Test results reported in article PMC11711466, “Reconstitution of human DNA licensing and the structural and functional analysis of key intermediates” (Nature Communications, 2024).

Molecular target: T1, human origin recognition complex hORC1-5 (human, UniProt Q13415 1-861; Q13416 1-577; Q9UBD5 1-711; O43929 1-436; O43913 1-435)
T1 construct: human origin recognition complex subunit 1 (hORC1); human origin recognition complex subunit 2 (hORC2); human origin recognition complex subunit 3 (hORC3); human origin recognition complex subunit 4 (hORC4); human origin recognition complex subunit 5 (hORC5); The Strep tag on hORC1 was kept for the pull-down; also called Strep-hORC1-5; hORC1-5WT; source: S. cerevisiae YC658, galactose-induced, …
Test: cryo-EM structure; hOCCM from a low-salt washed pre-RC reaction with ATPγS, eluted from the DNA beads with DNaseI; 6.09 Å
Settings: both partners purified

binding result: binds
B1: human MCM5 (natural protein, UniProt P33992 1-734, looked up)
chain: MSGFDDPGIFYSDSFGGDAQADEGQARKSQLQRRFKEFLRQYRVGTDRTGFTFKYRDELKRHYNLGEYWIEVEMEDLASFDEDLADYLYKQPAEHLQLLEEAAKEVADEVTRPRPSGEEVLQDIQVMLKSDASPSSIRSLKSDMMSHLVKIPGIIIAASAVRAKATRISIQCRSCRNTLTNIAMRPGLEGYALPRKCNTDQAGRPKCPLDPYFIMPDKCKCVDFQTLKLQELPDAVPHGEMPRHMQLYCDRYLCDKVVPGNRVTIMGIYSIKKFGLTTSRGRDRVGVGIRSSYIRVLGIQVDTDGSGRSFAGAVSPQEEEEFRRLAALPNVYEVISKSIAPSIFGGTDMKKAIACLLFGGSRKRLPDGLTRRGDINLLMLGDPGTAKSQLLKFVEKCSPIGVYTSGKGSSAAGLTASVMRDPSSRNFIMEGGAMVLADGGVVCIDEFDKMREDDRVAIHEAMEQQTISIAKAGITTTLNSRCSVLAAANSVFGRWDETKGEDNIDFMPTILSRFDMIFIVKDEHNEERDVMLAKHVITLHVSALTQTQAVEGEIDLAKLKKFIAYCRVKCGPRLSAEAAEKLKNRYIIMRSGARQHERDSDRRSSIPITVRQLEAIVRIAEALSKMKLQPFATEADVEEALRLFQVSTLDAALSGTLSGVEGFTSQEDQEMLSRIEKQLKRRFAIGSQVSEHSIIKDFTKQKYPEHAIHKVLQLMLRRGEIQHRMQRKVLYRLK
notes: Subunit of m6; also called hMCM5; source: HEK293-F, co-expressed hMCM2-7; in lysate (co-purification) and purified as hMCM2-7 (Ni-NTA, StrepTrapXT)
